Laboratory results from paper PMC10275993.

Biological target: acidic H8 loop of karyopherin β2 (KAPB2-H8)
Experiment: turbidity (OD600) of liquid-liquid phase separation, critical salt concentration; 50 μM R-DPR peptide mixed with 50 μM KAPB2-H8 peptide in 10 mM HEPES pH 7.4 with 0 to 400 mM NaCl; droplets also imaged by confocal microscopy

| critical salt concentration (NaCl at which the droplets disappeared) [mM] | NaCl concentration until which the droplets remained [mM] | Binder |
| --- | --- | --- |
| 250 | – | PRPRPRPRPRPRPRPRPRPRPRPRPRPRPRPRPRPRPRPR [(PR)20] |
| – | 300 | GRGRGRGRGRGRGRGRGRGRGRGRGRGRGRGRGRGRGRGR [(GR)20] |
